The series “native gel or EMSA” deals with the molecule itself. Put plainly: native gel or EMSA. (In general: Mobility shift assays separate free from complexed probe on a gel.)
Series [1] deals with the molecule itself. Put plainly: in vitro oligomerization assay.

B1: His-Sumo-tagged Cab45 (recombinant) (natural protein, human, UniProt Q9BRK5 37-362, looked up)
chain: RPANHSSTRERVANREENEILPPDHLNGVKLEMDGHLNRGFHQEVFLGKDLGGFDEDAEPRRSRRKLMVIFSKVDVNTDRKISAKEMQRWIMEKTAEHFQEAMEESKTHFRAVDPDGDGHVSWDEYKVKFLASKGHSEKEVADAIRLNEELKVDEETQEVLENLKDRWYQADSPPADLLLTEEEFLSFLHPEHSRGMLRFMVKEIVRDLDQDGDKQLSVPEFISLPVGTVENQQGQDIDDNWVKDRKKEFEELIDSNHDGIVTAEELESYMDPMNEYNALNEAKQMIAVADENQNHHLEPEEVLKYSEFFTGSKLVDYARSVHEEF
Turning to B1, the binding result in the series “native gel or EMSA” is listed as “binds”.

B2: ATTO488-labeled recombinant Cab45 (natural protein, human, UniProt Q9BRK5 37-362, looked up)
chain: RPANHSSTRERVANREENEILPPDHLNGVKLEMDGHLNRGFHQEVFLGKDLGGFDEDAEPRRSRRKLMVIFSKVDVNTDRKISAKEMQRWIMEKTAEHFQEAMEESKTHFRAVDPDGDGHVSWDEYKVKFLASKGHSEKEVADAIRLNEELKVDEETQEVLENLKDRWYQADSPPADLLLTEEEFLSFLHPEHSRGMLRFMVKEIVRDLDQDGDKQLSVPEFISLPVGTVENQQGQDIDDNWVKDRKKEFEELIDSNHDGIVTAEELESYMDPMNEYNALNEAKQMIAVADENQNHHLEPEEVLKYSEFFTGSKLVDYARSVHEEF
modifications: ATTO488 (NHS-ATTO488 label)
As for B2, in series [1], the binding result was “binds”.

For the origin of these results see PMC4862333 (The Journal of Cell Biology, 2016).
